According to patent US8962819B2, “Anti-C5 alpha antibodies” (Adienne S.A., priority 2002, dated 2015):
“Also recorded” adds a separate entry of the source.

B1: TS-A12: human anti-C5 single chain scFv antibody clone selected from a naive phage library (protein, listed as Homo sapiens)
scFv: DIRMTQSPDSLAVSLGERATINCKSSQSVLYSSNNKNYLAWYQQKPGQPPKLLIYWASTRESGVPDRFSGSGSGTDFTLTISSLQAEDVAVYYCQQYYSTPQLTFGGRTKVDIKSGGSTITSYNVYYTKLSSSGTQVQLQQSEGGVVQPGRSLRLSCAASGFTFSSYGMNWVRQAPGKGLEWVSYISSSSSTIYYADSVKGRFTISRDNSKNTLYLQMNSLRAEDTAVYYCARGPGMDVWGQGTTVTVSS
B2: C5A: C5a fragment; human recombinant C5a component purchased from SIGMA-ALDRICH (protein, UniProt P01031 678-751, looked up)
C5a anaphylatoxin: TLQKKIEEIAAKYKHSVVKKCCYDGACVNNDETCEQRAARISLGPRCIKAFTECCVVASQLRANISHKDMQLGR
modifications: C5a anaphylatoxin
notes: C5a fragment; human recombinant C5a component purchased from SIGMA-ALDRICH

What was measured:
[1] = tested on: binding of the TS-A12/22 antibody to C5; experiment: Competitive ELISA on solid-phase C5 after pre-incubation of TS-A12/22 with peptide; set-up: species or system human; details: 800 ng CS5 or 3.5 μg C5a fragment; highest concentrations used
Chain of binding of the TS-A12/22 antibody to C5 (P01031 678-1676 partner limits assumed, one chain of several): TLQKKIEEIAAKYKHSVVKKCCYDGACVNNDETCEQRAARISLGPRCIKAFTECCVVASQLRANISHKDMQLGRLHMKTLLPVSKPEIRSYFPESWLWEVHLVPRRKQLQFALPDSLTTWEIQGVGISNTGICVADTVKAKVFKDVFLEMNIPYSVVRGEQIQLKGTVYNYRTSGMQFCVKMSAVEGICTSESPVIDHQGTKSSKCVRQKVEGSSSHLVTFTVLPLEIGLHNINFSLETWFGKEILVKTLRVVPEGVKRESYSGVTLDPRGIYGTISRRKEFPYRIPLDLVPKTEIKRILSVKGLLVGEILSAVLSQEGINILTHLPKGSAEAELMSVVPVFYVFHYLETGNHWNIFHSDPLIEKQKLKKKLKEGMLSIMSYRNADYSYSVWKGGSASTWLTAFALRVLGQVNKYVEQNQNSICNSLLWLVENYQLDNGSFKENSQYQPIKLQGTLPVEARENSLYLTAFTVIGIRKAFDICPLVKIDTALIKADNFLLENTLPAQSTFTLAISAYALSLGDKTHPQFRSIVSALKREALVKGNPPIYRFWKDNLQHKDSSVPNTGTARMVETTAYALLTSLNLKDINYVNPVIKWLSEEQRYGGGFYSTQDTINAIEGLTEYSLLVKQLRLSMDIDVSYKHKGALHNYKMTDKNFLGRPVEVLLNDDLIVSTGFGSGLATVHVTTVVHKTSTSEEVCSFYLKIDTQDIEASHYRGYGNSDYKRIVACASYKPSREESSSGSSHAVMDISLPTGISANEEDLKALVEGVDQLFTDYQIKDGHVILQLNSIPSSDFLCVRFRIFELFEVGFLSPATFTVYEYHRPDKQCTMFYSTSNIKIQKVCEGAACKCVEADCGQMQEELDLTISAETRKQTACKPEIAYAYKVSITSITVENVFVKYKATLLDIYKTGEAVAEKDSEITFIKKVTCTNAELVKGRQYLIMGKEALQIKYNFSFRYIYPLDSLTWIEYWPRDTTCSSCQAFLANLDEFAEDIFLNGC
Chain of binding of the TS-A12/22 antibody to C5 (P01031 19-673 partner limits assumed, one chain of several): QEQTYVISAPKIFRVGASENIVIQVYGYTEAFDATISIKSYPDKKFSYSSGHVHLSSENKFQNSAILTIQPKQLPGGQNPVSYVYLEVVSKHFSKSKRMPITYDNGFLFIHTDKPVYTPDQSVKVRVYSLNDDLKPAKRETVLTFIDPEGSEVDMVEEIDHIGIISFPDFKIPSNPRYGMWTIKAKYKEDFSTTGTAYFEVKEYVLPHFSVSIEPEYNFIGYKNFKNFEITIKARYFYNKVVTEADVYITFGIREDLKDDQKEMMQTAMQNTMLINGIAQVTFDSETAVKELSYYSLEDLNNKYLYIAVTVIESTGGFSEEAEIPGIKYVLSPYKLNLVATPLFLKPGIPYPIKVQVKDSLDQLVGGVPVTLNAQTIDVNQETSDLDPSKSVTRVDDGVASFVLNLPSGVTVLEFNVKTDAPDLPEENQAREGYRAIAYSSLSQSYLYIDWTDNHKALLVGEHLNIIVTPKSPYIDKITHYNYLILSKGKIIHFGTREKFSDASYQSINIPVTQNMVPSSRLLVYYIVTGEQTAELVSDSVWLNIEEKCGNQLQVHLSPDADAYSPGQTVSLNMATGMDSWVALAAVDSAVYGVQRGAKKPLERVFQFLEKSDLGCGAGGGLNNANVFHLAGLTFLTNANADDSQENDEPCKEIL
Procedure: Binding of the antibody, pre-incubated in different conditions, was assessed by immuno-enzymatic assay using C5 on solid phase.
This peptide corresponds to region 727-744 of the mature protein and comprises the cleavage site of C5 convertase (indicated by the arrow) between […] according to SwissProt numbering for human C5 (SEQ ID P01031). The peptide was used in a competitive ELISA assay on the C5 protein on solid phase. Before binding to the solid phase, the TS-A12/22 antibody was pre-incubated with the PSA-18 peptide, corresponding to amino acids 727-744 of the C5 component, or with an unrelated peptide of sequence […] (SEQ ID NO:16 of sequence listing) corresponding to a fibronectin derived peptide termed CS5.

[2] = target: T1, factor C5 (Homo sapiens, UniProt P01031); experiment: Surface plasmon resonance (BIACORE 2000) on C5 immobilized on chip; assay type: binding; details: read-out: KD calculated
T1 construct: C5 alpha and beta subunits were obtained by incubating 50 μg of C5; purchased Quidel
T1 sequence (P01031 678-1676 limits assumed): as the sequence (P01031 678-1676 partner limits assumed, one chain of several) above
T1 sequence (P01031 19-673 partner limits assumed): as the sequence (P01031 19-673 partner limits assumed, one chain of several) above
Procedure: The binding affinity of the Tsa-12 antibody, purified by means of FPLC on Superdex 75 (Pharmacia), for factor C5 was measured by means of BIACORE™ 2000 (a system that generates unique data on the interactions between proteins and other molecules). The microchip (CM5, Biacore) was prepared by direct conjugation of the C5 antigen with amines (20 μg/ml in 10 mM Sodium Acetate pH 4.5). The final level of immobilisation turned out to be approximately 1000 RU (Resonance Units). Association and dissociation of antibody molecules from the bio-chip were measured using an optical detection system (Surface Plasmon Resonance). The analysis was carried out at 25° C., at a flow of 15 μl/min, using 4 different scFv concentrations in the range comprised between 100-300 nM, in PBS, 0.005% P20 (Biacore). The binding curves were interpolated 1:1 according to the model of Langmuir, using the dedicated software termed BIAevaluation (version 3.5) with correction for the mass transfer. In order to increase the affinity, the TS-A12 antibody was subjected to substitution (“shuffling”) of the VL light chains. For this purpose the phagemid DNA was cut with BssHII and SaII to excise the VL region. This region was substituted with all the repertoire of VL chains of a preimmune library (Sblattero, D., and Bradbury A., 2000, Nat. Biotechnol. 18:75) that was prepared with same enzymes. […]

[3] = target: T2, C5 (Homo sapiens, UniProt P01031); experiment: ELISA of C5a released after cleavage of C5 by C5 convertase; assay type: biochemical; details: FIG. 1A, classical pathway
T2 construct: C5 alpha and beta subunits were obtained by incubating 50 μg of C5; purchased Quidel
T2 sequence (P01031 678-1676 limits assumed): as the sequence (P01031 678-1676 partner limits assumed, one chain of several) above
T2 sequence (P01031 19-673 partner limits assumed): as the sequence (P01031 19-673 partner limits assumed, one chain of several) above
Procedure: (§1) Panel A) The ELISA assay measures the amount of C5a fragment released in the supernatant after enzymatic cleavage of C5, using antibodies anti-C5 as described in example 6. […] Sheep erythrocytes sensitised with antibodies and coated until the C3b (EAC1-3b) complement step were added to the mixture of TS-A12 or TS-A12/22 and C5, and the mixture was further incubated for 30 minutes at 37° C. (panel B).
(§2) The obtained anti-C5 scFv fragments were further characterised for their ability to inhibit the hemolytic activity of C5 or, in other words, to block conversion of the C5 component to C5a. […] At the end of this procedure, cell lysis was measured as percentage of the control of total lysis in distilled H2O (see FIG. 1, panel B). The inhibition of C5a and TCC production by the scFv TS-A12 and TS-A12/22 was measured by means of ELISA using the monoclonal antibody 17/5 as the capture antibody and antibody G25/2 as detection antibody according to what has been described in Opperman et al., 1991, Complement Inflamm. […] The presence of TCC was measured using antibody aE11 as the capture antibody and a biotinylated anti-C5 antibody (SIGMA-ALDRICH®) followed by alkaline phosphatase-conjugated streptavidin, as described by Tedesco et al. (1997, J Exp. Med. 185:1619).

[4] = target: T2, C5; experiment: Haemolytic assay / TCC ELISA with EAC1-3b sheep erythrocytes and C5 depleted serum; assay type: biochemical; details: FIG. 1B
Procedure: as §1
Sheep erythrocytes (SBRC: Sheep red blood cells) were sensitised with sub-agglutinating amounts of rabbit IgM (EA). […]
as §2

Row | Molecule | inhibition of binding of TS-A12/22 to C5 (in words) [1] | Kd [2] | inhibition of formation of C5a [3] | inhibition of formation of TCC [4]
1 | GEEIQIGHIPREDVDYHLYP (PEPTIDE (1)..(20) fibronectin derived peptide; listed as Homo sapiens) [CS5, unrelated fibronectin derived peptide] | ineffective; also recorded: NO inhibition |  |  | 
2 | B1 |  | 200 nM | inhibit almost completely | inhibit almost completely
3 | B2 | NO inhibition |  |  | 
